Measurements published in US20250340635A1 (HEFEI TG IMMUNOPHARMA, published 2025).

Assays:
[1] = molecular target: T1, cynomolgus monkey-His fusion protein (cynomolgus monkey, UniProt Q95JB9 22-257); test: not described at this place ("Validation has shown"); Jeru4602 was tested by ELISA on coated cynomolgus NKp46-His in Example 7
T1 construct: extracellular domain; also called cynomolgus monkey NKp46; monkey NKp46; not shown: His tag
Protocol: The binding characteristics of the humanized 10D10 antibody prepared in Example 6 was detected using the ELISA assay. The NKp46 extracellular region His tag fusion protein (NKp46-His) was coated into a 96-well plate. The signal intensity after antibody addition was used to determine the binding characteristics of the antibody to NKp46. The specific steps were as follows:
The human NKp46-His fusion protein and cynomolgus monkey-His fusion protein (for specific sources, see Example 2) were diluted to 1 μg/mL with PBS buffer, added to a 96-well plate at 100 μL/well and left overnight at 4° C. The PBS buffer solution was removed from the 96-well plate. The plate was washed 6 times with PBST (pH 7.2, PBS containing 0.1% Tween 20) buffer solution. PBS/10% BSA was added at 200 μL/well and incubated at 37° C. for 2 hours for blocking. The blocking solution was removed. The plate was washed 6 times with PBST. […] The absorbance at […] was read with a microplate reader.

[2] = molecular target: T2, human NKp46-His fusion protein (human, UniProt O76036 22-258); test: ELISA, NKp46-His coated, anti-human HRP
T2 construct: Bought from Acro; also called NKp46 extracellular region His tag fusion protein; not shown: His tag

[3] = molecular target: T3, human MICA-His fusion protein (human, UniProt Q29983 24-307); test: ELISA, MICA-His coated, anti-human HRP
T3 construct: extracellular domain; also called MICA extracellular region His tag fusion protein; not shown: His tag
T3 sequence (looked up): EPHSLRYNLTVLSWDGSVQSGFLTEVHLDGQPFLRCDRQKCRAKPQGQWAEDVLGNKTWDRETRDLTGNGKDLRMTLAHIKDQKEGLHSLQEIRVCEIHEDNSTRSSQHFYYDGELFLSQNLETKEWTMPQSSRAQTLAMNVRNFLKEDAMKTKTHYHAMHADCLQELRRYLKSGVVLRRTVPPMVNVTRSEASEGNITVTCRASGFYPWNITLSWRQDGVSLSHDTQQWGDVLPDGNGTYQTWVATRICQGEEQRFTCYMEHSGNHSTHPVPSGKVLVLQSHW

T2 sequence (O76036 22-258 Q82K): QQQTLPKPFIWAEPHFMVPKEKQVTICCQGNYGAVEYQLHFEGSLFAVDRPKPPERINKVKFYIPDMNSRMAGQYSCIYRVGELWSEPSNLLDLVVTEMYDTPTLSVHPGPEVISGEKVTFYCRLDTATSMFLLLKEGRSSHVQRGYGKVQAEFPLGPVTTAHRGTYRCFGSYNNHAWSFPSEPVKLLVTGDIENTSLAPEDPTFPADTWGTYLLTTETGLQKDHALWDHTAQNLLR
T1 sequence (Q95JB9 22-257): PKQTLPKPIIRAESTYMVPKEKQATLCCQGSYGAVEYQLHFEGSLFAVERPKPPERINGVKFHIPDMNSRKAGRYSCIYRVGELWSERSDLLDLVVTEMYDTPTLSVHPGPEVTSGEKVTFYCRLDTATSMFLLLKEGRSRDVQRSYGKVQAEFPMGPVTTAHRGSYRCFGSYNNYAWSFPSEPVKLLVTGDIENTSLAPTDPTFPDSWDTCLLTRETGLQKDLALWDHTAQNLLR

B1: Jeru4602 (antibody, human IgG1, kappa, L234A L235A, V domains shown)
VH: QVTLKESGPGILQPSQTLSLTCSFSGFSLSTYGIGVGWNRQPSGKGLEWLAHIWWNDNEYYNIDLKSRLTISKDTSNNQVFLKIASVDTADTATYYCVRGNYRYARGYVMDYWGQGTSVTVSS
VL: DIVLTQSPASLAVSLGQRATISCRASESVEYYGTSLMQWYQQKPGQPPKLLIYAASNVESGVPARFSGSGSGTDFSLNIHPVEEDDFAMYFCQQNRKVPWTFGGGTKLEIKR
notes: also called control antibody 2; NKp46 antibody disclosed in U.S. Ser. No. 10/716,864
B1: no binding [1].

B2: murine 10D10×MICA bispecific antibody (bispecific antibody, human IgG1, kappa, L234A L235A)
chain: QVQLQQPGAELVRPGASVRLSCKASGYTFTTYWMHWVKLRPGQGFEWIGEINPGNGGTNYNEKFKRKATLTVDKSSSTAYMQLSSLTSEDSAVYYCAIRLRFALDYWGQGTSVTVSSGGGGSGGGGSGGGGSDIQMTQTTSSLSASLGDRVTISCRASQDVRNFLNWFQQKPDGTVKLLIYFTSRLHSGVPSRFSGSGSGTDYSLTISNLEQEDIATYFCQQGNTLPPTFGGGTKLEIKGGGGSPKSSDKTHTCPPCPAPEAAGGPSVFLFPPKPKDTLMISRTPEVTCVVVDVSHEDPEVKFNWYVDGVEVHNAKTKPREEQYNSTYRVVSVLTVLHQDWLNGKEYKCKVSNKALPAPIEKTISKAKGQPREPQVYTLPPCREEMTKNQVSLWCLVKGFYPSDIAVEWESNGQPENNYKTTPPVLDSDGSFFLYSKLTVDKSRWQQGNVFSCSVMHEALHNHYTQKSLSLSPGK
heavy: QVQLQESGPGLVKPSETLSLTCTVSGFSLTTYGVHWIRQPPGKGLEWIGMIWTDATTDYNAAFISRVTISVDTSKNQFSLKLSSVTAADTAVYYCARKGHGYYYAMDYWGQGTLVTVSSASTKGPSVFPLAPSSKSTSGGTAALGCLVKDYFPEPVTVSWNSGALTSGVHTFPAVLQSSGLYSLSSVVTVPSSSLGTQTYICNVNHKPSNTKVDKKVEPKSCDKTHTCPPCPAPEAAGGPSVFLFPPKPKDTLMISRTPEVTCVVVDVSHEDPEVKFNWYVDGVEVHNAKTKPREEQYNSTYRVVSVLTVLHQDWLNGKEYKCKVSNKALPAPIEKTISKAKGQPREPQVCTLPPSREEMTKNQVSLSCAVKGFYPSDIAVEWESNGQPENNYKTTPPVLDSDGSFFLVSKLTVDKSRWQQGNVFSCSVMHEALHNHYTQKSLSLSPGK
light: EIVLTQSPGTLSLSPGERATLSCTASSSVSSSYLHWYQQKPGQAPRLLIYSTSNLASGIPDRFSGSGSGTDFTLTISRLEPEDFAVYYCHQYHRSPFTFGQGTKLEIKRTVAAPSVFIFPPSDEQLKSGTASVVCLLNNFYPREAKVQWKVDNALQSGNSQESVTEQDSKDSTYSLSSTLTLSKADYEKHKVYACEVTHQGLSSPVTKSFNRGEC
notes: First chain is the murine 10D10 ScFv-Fc (knob); the heavy and light chains are those of the MICA antibody (hole); knob-into-hole heterodimer; also called NKp46 (murine 10D10)×MICA bispecific antibody
B2: binds [2]; binds [3].

B3: humanized 10D10×MICA bispecific antibody (bispecific antibody, human IgG1, kappa, L234A L235A)
chain: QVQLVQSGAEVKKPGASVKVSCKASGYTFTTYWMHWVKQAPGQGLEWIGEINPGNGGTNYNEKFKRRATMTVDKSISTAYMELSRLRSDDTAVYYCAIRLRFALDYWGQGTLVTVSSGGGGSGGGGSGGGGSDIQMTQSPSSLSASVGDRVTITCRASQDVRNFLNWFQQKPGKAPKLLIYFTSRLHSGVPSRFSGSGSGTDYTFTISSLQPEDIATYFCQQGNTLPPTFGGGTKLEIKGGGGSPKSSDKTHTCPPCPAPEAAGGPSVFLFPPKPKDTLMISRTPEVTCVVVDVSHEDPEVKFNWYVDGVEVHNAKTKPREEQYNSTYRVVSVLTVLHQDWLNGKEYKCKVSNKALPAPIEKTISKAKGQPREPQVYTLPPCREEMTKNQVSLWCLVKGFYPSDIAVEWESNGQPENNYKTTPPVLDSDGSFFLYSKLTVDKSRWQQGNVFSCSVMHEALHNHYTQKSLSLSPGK
heavy: B2 heavy
light: B2 light
notes: First chain is the humanized h10D10 ScFv-Fc (knob); the heavy and light chains are those of the MICA antibody (hole); also called h10D10×MICA; NKp46 (humanized 10D10)×MICA bispecific antibody
B3: binds [2]; binds [3].
